The assay has as its target recombinant Factor VIII Fc fusion protein (rFVIIIFc) (human) [IgG part: P0DOX5]. Kind of assay: cell-based or functional assay.

Consider “von Willebrand Factor (VWF) (from UniProt P04275 764-2813)”, for which the percent of cells characterized as osteoclasts at day 7 after rFVIIIFc together with VWF (14.2% with rFVIIIFc alone) is 45.7%.
